# Measurements reported in patent US20250155401, “RAPID, SINGLE-STEP AND REAGENTLESS ELECTROCHEMICAL BIOSENSING METHODS, COMPOSITIONS AND DEVICES FOR NANOMOLAR DETECTION OF C-REACTIVE PROTEIN” (Advanced Biomedical Instrumentation Centre Limited, published 2025).
# T1: C-reactive protein (CRP) (UniProt P02741 P02741:19-224)
# T1 sequence: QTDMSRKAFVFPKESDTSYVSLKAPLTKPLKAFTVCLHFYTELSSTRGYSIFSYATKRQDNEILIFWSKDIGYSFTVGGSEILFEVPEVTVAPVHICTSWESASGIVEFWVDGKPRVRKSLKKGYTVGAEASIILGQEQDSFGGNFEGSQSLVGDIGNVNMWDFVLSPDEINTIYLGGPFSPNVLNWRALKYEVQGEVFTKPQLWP
# B1: CRP-targeting aptamer (ssDNA)
# DNA: GGCAGGAAGACAAACACGATGGGGGGGTATGATTTGATGTGGTTGTTGCATGATCGTGGTCTGTGGTGCTGT
# modifications: 5' thiol modifier (C6-S-S), 3' methylene blue via C7 spacer
# Columns and labels:
# C-reactive protein (CRP) [1] = biological target: T1, C-reactive protein (CRP); experiment: square wave voltammetry on gold SPE, Hill-Langmuir fit of 48-hour sensor re-use data; BSA-doped PBS with Mg, room temperature not stated; details: tags: abcam ab167710, HEK 293 expressed, >95% purity; chain copies: 5 (pentamer, stated); label: 3' methylene blue
# Experimental: Refer to FIGS. 4A-4D for the following descriptions. To assess reusability of the prepared aptasensors, dose-response assays are conducted in BSA doped PBS buffer 48 hours after initial testing. Magnesium is used to supplement PBS buffer to more closely match the ion content found in serum with observations showing little difference between results obtained from the initial screening assay. […] Despite these uncertainties, linear range observed for used sensors is broadly maintained. For used sensors, the LOD calculated from linear regression is shown to be approximately 363 pM which matched well with an LOD value of approx. 374 pM derived from non-linear regression fits to the Hill-Langmuir (dose response) function described in section 2.6. Non-Linear fitting is achieved with good fitting (adjusted R₂=0.99). […] Here, concentration is provided in molar units, calculated using the CRP pentameric isoform weight of 120 kDa.
# [2] = biological target: bovine serum albumin (BSA) (Bos taurus, UniProt P02769 P02769:25-607); experiment: square wave voltammetry; no observable deviation in response, PBS; details: tags: Sigma-Aldrich, lyophilized powder >96%; label: 3' methylene blue
# Sequence of bovine serum albumin (BSA) (P02769 25-607, one chain of several): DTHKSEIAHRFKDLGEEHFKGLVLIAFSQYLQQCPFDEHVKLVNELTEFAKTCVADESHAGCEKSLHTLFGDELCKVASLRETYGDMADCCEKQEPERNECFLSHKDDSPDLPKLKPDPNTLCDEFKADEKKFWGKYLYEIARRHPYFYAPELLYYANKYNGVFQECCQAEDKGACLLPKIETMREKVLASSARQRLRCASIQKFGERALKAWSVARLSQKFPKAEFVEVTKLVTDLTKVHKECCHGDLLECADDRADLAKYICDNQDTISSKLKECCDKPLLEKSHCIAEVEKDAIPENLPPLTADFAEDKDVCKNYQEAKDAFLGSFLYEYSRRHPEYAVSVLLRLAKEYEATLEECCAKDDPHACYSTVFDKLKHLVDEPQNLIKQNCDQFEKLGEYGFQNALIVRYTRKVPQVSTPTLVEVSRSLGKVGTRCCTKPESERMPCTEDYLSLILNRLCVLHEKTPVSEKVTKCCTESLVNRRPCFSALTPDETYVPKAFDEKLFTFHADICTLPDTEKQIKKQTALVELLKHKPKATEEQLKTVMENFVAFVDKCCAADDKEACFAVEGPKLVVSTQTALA
# Experimental: (§1) The initial response spike is caused by injection of the analyte. Subsequent stabilisation of the response signal via this testing method occurs over 2-3 minutes. Crucially, significant concentrations of bovine serum albumin, and human serum albumin produce no observable deviation in response, confirming excellent selectivity against serum endogenous proteins that are well known to produce false positives in other sensors formats.
# [3] = biological target: human serum albumin (HSA) (Homo sapiens, UniProt P02768 P02768:25-609); experiment: as above; details: label: 3' methylene blue
# Sequence of human serum albumin (HSA) (P02768 25-609, one chain of several): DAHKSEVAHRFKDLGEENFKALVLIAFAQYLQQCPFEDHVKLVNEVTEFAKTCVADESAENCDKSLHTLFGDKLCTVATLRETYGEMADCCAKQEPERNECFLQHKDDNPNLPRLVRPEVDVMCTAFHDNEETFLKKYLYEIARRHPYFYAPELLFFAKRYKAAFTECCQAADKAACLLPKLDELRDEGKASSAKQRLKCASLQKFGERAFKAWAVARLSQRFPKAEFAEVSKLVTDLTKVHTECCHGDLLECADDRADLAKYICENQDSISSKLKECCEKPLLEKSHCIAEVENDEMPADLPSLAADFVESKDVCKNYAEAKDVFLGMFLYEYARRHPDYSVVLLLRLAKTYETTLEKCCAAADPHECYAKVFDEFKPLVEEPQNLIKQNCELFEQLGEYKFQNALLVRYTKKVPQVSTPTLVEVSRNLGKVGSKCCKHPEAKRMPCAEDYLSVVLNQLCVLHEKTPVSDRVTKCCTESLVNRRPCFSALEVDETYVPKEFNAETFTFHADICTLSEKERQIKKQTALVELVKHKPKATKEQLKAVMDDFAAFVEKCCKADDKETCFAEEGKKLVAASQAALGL
# Experimental: as §1
# C-reactive protein (CRP) [4] = biological target: T1, C-reactive protein (CRP); experiment: square wave voltammetry; no response up to 500 nM CRP in PBS with 1 mM BSA; details: tags: abcam ab167710, HEK 293 expressed, >95% purity; chain copies: 5 (pentamer, stated); label: 3' methylene blue
# Experimental: Refer to FIGS. 3A-3E for the following descriptions. To assess specificity of the CRP-targeting aptamer, initial assays are conducted in PBS (1×) buffer supplemented with bovine serum albumin ‘BSA’. Albumin is fixed at a concentration of 1 mM to reflect slightly higher concentrations than those found in serum. Control sensors are prepared in the same fashion as with test sensors using an excised version of the CRP-targeting aptamer sequence without flanking primer regions (FIG. 3D). […] A Limit of detection ‘LOD’ of 105.4 pM is calculated using linear regression, using n=3 independently prepared sensors. […] Here, CRP concentration is reported in molar units and calculate values based on the pentameric isoform weight of 115-120 kDa, as is reported by the commercial supplier and elsewhere.
Binder,Kd (C-reactive protein (CRP) [1]),binding result [2],binding result [3],binding result (C-reactive protein (CRP) [4])
B1,0.0554 µM,no binding,no binding,–
"CGATGGGGGGGTATGATTTGATGTGGTTGTTGCATGATCG (ssDNA, 5' thiol modifier (C6-S-S), 3' methylene blue via C7 spacer) [CRP-targeting aptamer without flanking primer regions (control)]",–,–,–,no binding
